Target: T1, GST-RadilPDZ (human, UniProt Q96JH8 870-1075)
T1 sequence (looked up): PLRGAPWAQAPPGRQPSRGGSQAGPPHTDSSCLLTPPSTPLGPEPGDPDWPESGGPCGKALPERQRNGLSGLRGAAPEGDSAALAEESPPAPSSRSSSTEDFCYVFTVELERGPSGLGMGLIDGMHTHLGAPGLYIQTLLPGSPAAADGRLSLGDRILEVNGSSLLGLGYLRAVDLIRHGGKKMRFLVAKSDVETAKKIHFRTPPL
Experiment: pull-down

B1: Flag-KIF14-ctail-IQWV (domain or fragment, human, UniProt Q15058 1483-1648, looked up)
chain: VQEENFEYQDFKRMVNRAPEFLKLKHCLEKAIEIIISALKGCHSDINLLQTCVESIRNLASDFYSDFSVPSTSVGSYESRVTHIVHQELESLAKSLLFCFESEESPDLLKPWETYNQNTKEEHQQSKSSGIDGSKNKGVPKRVYELHGSSPAVSSEECTPSRIQWV
- binding result: binds

Reference: publication PMC3518219 (The Journal of Cell Biology, 2012)
